Values joined by “and” are separate entries in the source; they are usually repeats but may differ in a detail not shown here. Equal values may be shown once.
Assays:
[1] = biological target: human epidermal growth factor receptor 2 (HER2) (human) (UniProt P04626); test: dose-uptake, fluorometry of lysed cells, 37 °C, 4 hr; SK-BR-3 cells (HER2 overexpressed, negligible EGFR)
[2] = biological target: epidermal growth factor receptor (EGFR) (human) (UniProt P00533); test: flow cytometry (MFI) of DiD-labelled liposomes, 75 µM PL, 37 °C, 4 hr; MDA-468 cells (EGFR overexpressed, negligible HER2)
[3] = biological target: epidermal growth factor receptor (EGFR) (human) (UniProt P00533); test: dose-uptake, fluorometry of lysed cells, 37 °C, 4 hr; MDA-468 cells (EGFR overexpressed, negligible HER2); 10 cetuximab-Fab′ and 5 F5 scFv per liposome
[4] = biological target: epidermal growth factor receptor (EGFR) (human) (UniProt P00533); test: dose-uptake, fluorometry of lysed cells, 37 °C, 4 hr; MDA-468 cells (EGFR overexpressed, negligible HER2); 20 cetuximab-Fab′ and 5 F5 scFv per liposome
[5] = biological target: epidermal growth factor receptor (EGFR) (human) (UniProt P00533); test: dose-uptake, fluorometry of lysed cells, 37 °C, 4 hr; MDA-468 cells (EGFR overexpressed, negligible HER2); 10 cetuximab-Fab′ and 10 F5 scFv per liposome
[6] = biological target: epidermal growth factor receptor (EGFR) (human) (UniProt P00533); test: dose-uptake, fluorometry of lysed cells, 37 °C, 4 hr; MDA-468 cells (EGFR overexpressed, negligible HER2); 20 cetuximab-Fab′ and 10 F5 scFv per liposome
[7] = biological target: epidermal growth factor receptor (EGFR) (human) (UniProt P00533); test: dose-uptake, fluorometry of lysed cells, 37 °C, 4 hr; MDA-468 cells (EGFR overexpressed, negligible HER2); 20 cetuximab-Fab′ and 15 F5 scFv per liposome
[8] = biological target: human epidermal growth factor receptor 2 (HER2) (human) (UniProt P04626); test: dose-uptake, fluorometry of lysed cells, 37 °C, 4 hr; MKN-7 cells
[9] = biological target: human epidermal growth factor receptor 2 (HER2) (human) (UniProt P04626); test: dose-uptake, fluorometry of lysed cells; SK-BR-3 cells; 10 F5 scFv per liposome
[10] = biological target: human epidermal growth factor receptor 2 (HER2) (human) (UniProt P04626); test: dose-uptake, fluorometry of lysed cells; SK-BR-3 cells; 15 F5 scFv per liposome
[11] = biological target: human epidermal growth factor receptor 2 (HER2) (human) (UniProt P04626); test: dose-uptake, fluorometry of lysed cells, 37 °C, 4 hr; MKN-7 cells; 5 F5 scFv per liposome
[12] = biological target: human epidermal growth factor receptor 2 (HER2) (human) (UniProt P04626); test: dose-uptake, fluorometry of lysed cells, 37 °C, 4 hr; BT-474 cells; 5 F5 scFv per liposome
[13] = biological target: human epidermal growth factor receptor 2 (HER2) (human) (UniProt P04626); test: dose-uptake, fluorometry of lysed cells, 37 °C, 4 hr; MKN-7 cells; 10 F5 scFv per liposome
[14] = biological target: human epidermal growth factor receptor 2 (HER2) (human) (UniProt P04626); test: dose-uptake, fluorometry of lysed cells, 37 °C, 4 hr; MKN-7 cells; 15 F5 scFv per liposome
[15] = biological target: human epidermal growth factor receptor 2 (HER2) (human) (UniProt P04626); test: dose-uptake, fluorometry of lysed cells, 37 °C, 4 hr; BT-474 cells; 10 F5 scFv per liposome
[16] = biological target: human epidermal growth factor receptor 2 (HER2) (human) (UniProt P04626); test: dose-uptake, fluorometry of lysed cells, 37 °C, 4 hr; BT-474 cells; 15 F5 scFv per liposome
[17] = biological target: human epidermal growth factor receptor 2 (HER2) (human) (UniProt P04626); test: dose-uptake, fluorometry of lysed cells, 37 °C, 4 hr; SK-BR-3 cells; plateau at ˜200 µM PL
[18] = biological target: human epidermal growth factor receptor 2 (HER2) (human) (UniProt P04626); test: flow cytometry (MFI) of DiD-labelled liposomes, 75 µM PL, 37 °C, 4 hr; MKN-7 cells (moderate HER2 and EGFR)
[19] = biological target: human epidermal growth factor receptor 2 (HER2) (human) (UniProt P04626); test: flow cytometry (MFI) of DiD-labelled liposomes, 75 µM PL, 37 °C, 4 hr; BT-474 cells; mono-targeted counterpart with 5 F5 scFv per liposome
[20] = biological target: epidermal growth factor receptor (EGFR) (human) (UniProt P00533); test: dose-uptake, fluorometry of lysed cells, 37 °C, 4 hr; MDA-468 cells (EGFR overexpressed, negligible HER2); 5 F5 scFv per liposome; no significant uptake compared to non-targeted liposomes
[21] = biological target: epidermal growth factor receptor (EGFR) (human) (UniProt P00533); test: dose-uptake, fluorometry of lysed cells, 37 °C, 4 hr; MDA-468 cells (EGFR overexpressed, negligible HER2); 10 F5 scFv per liposome; no significant uptake compared to non-targeted liposomes
[22] = biological target: epidermal growth factor receptor (EGFR) (human) (UniProt P00533); test: dose-uptake, fluorometry of lysed cells, 37 °C, 4 hr; MDA-468 cells (EGFR overexpressed, negligible HER2); 15 F5 scFv per liposome; no significant uptake compared to non-targeted liposomes

For “anti-HER2 and anti-EGFR dual-targeted immunoliposomes”, the F5 scFv per cell [1] was 2e+06 ligands/cell and 3e+06 ligands/cell, the fold binding over non-targeted liposomes (NT) [2] was 500 fold and the Anti-EGFR Lg/Cell Max (ligands per cell) [3] was 270000 ligands/cell. The LS/Cell Max (liposomes per cell) (liposomes/cell) [3] was 27000, the Anti-EGFR Lg/Cell Max (ligands per cell) [4] was 1.2e+06 ligands/cell and the LS/Cell Max (liposomes per cell) (liposomes/cell) [4] was 61000. The Anti-EGFR Lg/Cell Max (ligands per cell) [5] was 220000 ligands/cell, the LS/Cell Max (liposomes per cell) (liposomes/cell) [5] was 22000 and the Anti-EGFR Lg/Cell Max (ligands per cell) [6] was 1.1e+06 ligands/cell. For the same substance, the LS/Cell Max (liposomes per cell) (liposomes/cell) [6] was 53000, the Anti-EGFR Lg/Cell Max (ligands per cell) [7] was 1.2e+06 ligands/cell and the LS/Cell Max (liposomes per cell) (liposomes/cell) [7] was 59000.
In the case of “anti-HER2 F5 scFv-conjugated immunoliposomes”, the liposomes per cell (liposomes/cell) [8] is reported as less than 20000, the observed cellular uptake (liposomes per cell) (liposomes/cell) [9] is reported as 230000 and the observed cellular uptake (liposomes per cell) (liposomes/cell) [10] is reported as 230000. It also gave an LS/Cell Max (liposomes per cell) (liposomes/cell) [11] of 8100, an LS/Cell Max (liposomes per cell) (liposomes/cell) [12] of 40000 and an LS/Cell Max (liposomes per cell) (liposomes/cell) [13] of 4900. For the same substance, the LS/Cell Max (liposomes per cell) (liposomes/cell) [14] was 4100, the LS/Cell Max (liposomes per cell) (liposomes/cell) [15] was 72000 and the LS/Cell Max (liposomes per cell) (liposomes/cell) [16] was 68000. For the same substance, the F5 scFv per cell at the plateau [17] was 3e+06 ligands/cell, the liposomes per cell at the plateau (liposomes/cell) [17] was 200000 and 300000 and the fold binding over non-targeted liposomes (NT) [18] was 300 fold. The fold binding over non-targeted liposomes (NT) [19] was 200 fold, the LS/Cell Max (liposomes per cell) (liposomes/cell) [20] was 5300 and the LS/Cell Max (liposomes per cell) (liposomes/cell) [21] was 1100. For the same substance, the LS/Cell Max (liposomes per cell) (liposomes/cell) [22] was 8000.
